Test results published in publication PMC4707092 (Journal of immunology (Baltimore, Md. : 1950), 2015).

Target: C3b (UniProt P01024 749-1663, most molecules attached to the chip surface via the thioester group)
Test: SPR

Kd [nM] | Binder
709 | miniFH (other) AGEDCNELPPRRNTEILTGSWSDQTYPEGTQAIYKCRPGYRSLGNVIMVCRKGEWVALNPLRKCQKRPCGHPGDTPFGTFTLTGGNVFEYGVKAVYTCNEGYQLLGEINYRECDTDGWTNDIPICEVVKCLPVTAPENGKIVSSAMEPDREYHFGQAVRFVCNSGYKIEGDEEMHCSDDGFWSKEKPKCVEISCKSPDVINGSPISQKIIYKENERFQYKCNMGYEYSERGDAVCTESGWRPLPSCEEGKCGPPPPIDNGDITSFPLSVYAPASSVEYQCQNLYQLEGNKRITCRNGQWSEPPKCLHPCVISREIMENYNIALRWTAKQKLYSRTGESVEFVCKRGYRLSSRSHTLRTTCWDGKLEYPTCAKR
27 | midiFH (other) AGEDCNELPPRRNTEILTGSWSDQTYPEGTQAIYKCRPGYRSLGNVIMVCRKGEWVALNPLRKCQKRPCGHPGDTPFGTFTLTGGNVFEYGVKAVYTCNEGYQLLGEINYRECDTDGWTNDIPICEVVKCLPVTAPENGKIVSSAMEPDREYHFGQAVRFVCNSGYKIEGDEEMHCSDDGFWSKEKPKCVEISCKSPDVINGSPISQKIIYKENERFQYKCNMGYEYSERGDAVCTESGWRPLPSCEEGKCGPPPPIDNGDITSFPLSVYAPASSVEYQCQNLYQLEGNKRITCRNGQWSEPPKCLHPCVISREIMENYNIALRWTAKQKLYSRTGESVEFVCKRGYRLSSRSHTLRTTCWDGKLEYPTCAKREDCNELPPRRNTEILTGSWSDQTYPEGTQAIYKCRPGYRSLGNVIMVCRKGEWVALNPLRKCQKRPCGHPGDTPFGTFTLTGGNVFEYGVKAVYTCNEGYQLLGEINYRECDTDGWTNDIPICEVVKCLPVTAPENGKIVSSAMEPDREYHFGQAVRFVCNSGYKIEGDEEMHCSDDGFWSKEKPKCVEISCKSPDVINGSPISQKIIYKENERFQYKCNMGYEYSERGDAVCTESGWRPLPSCEEGKCGPPPPIDNGDITSFPLSVYAPASSVEYQCQNLYQLEGNKRITCRNGQWSEPPKCLHPCVISREIMENYNIALRWTAKQKLYSRTGESVEFVCKRGYRLSSRSHTLRTTCWDGKLEYPTCAKR
